We go through eleven substances from US5585345.

One assay addresses human glycoprotein hormone alpha subunit (human) (UniProt P01215). The assay can be described thus: co-expression with alpha subunit in CHO cells, pulse-chase, immunoprecipitation; recovery of diglycosylated form, estimated.
For LHthr^15 (1-114), the Dimer Recovery (%) was greater than 95%.

The target is the same in the next assay. Put plainly: co-expression with alpha subunit in CHO cells, 35S-cysteine pulse-chase, immunoprecipitation, SDS-PAGE.
Take LH(1-114): the Dimer Recovery (%) stood at 80%.

Take LHthr^15: the Dimer Recovery (%) is 30%.

LHthr^42 (1-114) gave a Dimer Recovery (%) of 84%.

Take LHarg^8: the Dimer Recovery (%) is 32%.

The substance “human chorionic gonadotropin beta subunit” returned a Dimer Recovery (%) greater than 95%.

For the substance LHarg^8 arg^10 (1-114), the Dimer Recovery (%) worked out at 95%.

LHarg^8 (1-114) showed a Dimer Recovery (%) of 91%.

CG(1-114) yielded a Dimer Recovery (%) of 90%.

For the substance human luteinizing hormone beta subunit, the Dimer Recovery (%) stood at 42%.

As for LHasn^58 (1-114), the Dimer Recovery (%) is greater than 95%.

For a further assay the target is unchanged. Put plainly: co-expression with alpha subunit in CHO cells, pulse-chase, immunoprecipitation; monoglycosylated form recovered in the medium.
Consider LHthr^15 (1-114), for which the Dimer Recovery (%) was determined as 40%.
